Consider three molecules from US20090181444A1, “MODIFIED CARBOHYDRATE PROCESSING ENZYME” (priority 2002, published 2009).

Counter-ions that a name gives are not always drawn.

A short description of series [1]: Kinetic assay with o-nitrophenyl β-D-galactopyranoside-6-phosphate, absorbance at 405 nm. The settings on record: oNPGalP6, 45° C., pH 6.5 phosphate buffer; averaged over 3 runs, except * 2 runs. The class given is biochemical. As to the method:
(§1) The kinetic activity of SsδG was assessed using ultra-violet/visible spectroscopy. Cleavage of the glycosidic bond of the nitrophenyl sugar analogue releases a chromophore (Scheme 18), either p-nitrophenol or o-nitrophenol.
(§2) The absorbance of these chromophores at 405 nm was continuously measured at regular time intervals, and the Beer-Lambert Law used to calculate the chromophore concentration at each of these time intervals.
(§3) In order to use this equation the extinction coefficient, ∈, of both p-nitrophenol and o-nitrophenol were calculated. Enzyme kinetic parameters were assessed using the initial rates method. The gradient of a plot of chromophore concentration against time gave the initial rate of reaction at a series of substrate concentrations (0.05-10 mM). Kinetic parameters were calculated by regression analysis of the kinetic data on the Michaelis-Menten Model (Fersht, A., Enzyme Structure and Mechanism, W.H. Freeman and Company, New York (1985)). The initial rate of reaction was measured. This model is valid when [substrate]>>[enzyme], which are initial rate conditions.
(§4) KM and νmax were calculated from non-linear Michaelis-Menten and linear Lineweaver-Burk plots. From these values, kcat and kcat/KM were calculated and compared.
KM=νmax/2, it is the concentration of substrate at which half the active sites are filled. Higher KM values correspond to weaker binding and lower KM values correspond to stronger binding kcat, the turnover number is the number of substrate molecules which are converted to product when the enzyme is saturated with substrate and ν (rate) is maximised. […] To allow comparison of the activity of the enzymes, ln({kcat/KM}mutant/{kcat/KM}WT) was calculated for each enzyme-substrate combination, to give overall activity relative to WT.
Substrate solutions (concentration 10 mM in 50 mM pH 6.5 phosphate buffer) were prepared. […] The enzyme stock solution (˜1 mgmL^−1) was diluted between 16- and 80-fold depending on the kinetic parameters determined*. […] Simultaneously a 96-well flat bottom microtitre plate was incubated at 45° C. in a plate reader. […] The plate containing the enzyme and substrate solutions was then incubated in the plate reader at 45° C. to allow equilibration. […] Release of p-nitrophenol/o-nitropbenol was measured by absorbance at […], with an automix of 3 s before the first read and Is between every subsequent read. The run time chosen was between 6 min and 10 min*, and readings were taken at intervals of between 6 s and 10 s*.
(§5) A graph of concentration of the released chromophore (either pNP or oNP) against time was drawn for each concentration using Microsoft Excel. […] These gradients were entered into Grafit, which calculated KM and νmax from the Michelis-Menten and Lineweaver-Burk plots. From these kcat and kcat/KM could be calculated. […]

Series [2] can be described thus: Kinetic assay with p-nitrophenyl β-D-galactopyranoside, absorbance at 405 nm. The class given is biochemical. Conditions: pNPGal, 45° C., pH 6.5 phosphate buffer, averaged over 3 runs, except * 2 runs. Here is the method: as §1, §2, §3, §4
KM=νmax/2, it is the concentration of substrate at which half the active sites are filled. Higher KM values correspond to weaker binding and lower KM values correspond to stronger binding kcat, the turnover number is the number of substrate molecules which are converted to product when the enzyme is saturated with substrate and ν (rate) is maximised. Given both of these considerations, binding and rate, kcat/KM is typically as a measure of the overall relative activity of the enzyme. To allow comparison of the activity of the enzymes, ln({kcat/KM}mutant/{kcat/KM}WT) was calculated for each enzyme-substrate combination, to give overall activity relative to WT.
Substrate solutions (concentration 10 mM in 50 mM pH 6.5 phosphate buffer) were prepared. Kinetic assays were conducted in a 96-well flat bottom microtitre plate. Eight substrate concentrations were chosen for the assay from the range 0.05 mM to 10 mM (prepared from 10 mM stock solution), based on previous experimental experience of the kinetics of each enzyme (default range 0.05 mM to 2.00 mM)*. The enzyme stock solution (˜1 mgmL^−1) was diluted between 16- and 80-fold depending on the kinetic parameters determined*. The enzyme solution (496 µL) was dispensed into a 1.5 mL sealed Eppendorf tube. Into eight further Eppendorf tubes a portion of each substrate solution (650 μL) was dispensed. The tubes were incubated in a Techni Dri Block at 45° C. Simultaneously a 96-well flat bottom microtitre plate was incubated at 45° C. in a plate reader. […] The plate containing the enzyme and substrate solutions was then incubated in the plate reader at 45° C. to allow equilibration. […] Release of p-nitrophenol/o-nitropbenol was measured by absorbance at […], with an automix of 3 s before the first read and Is between every subsequent read. The run time chosen was between 6 min and 10 min*, and readings were taken at intervals of between 6 s and 10 s*.
as §5

Usually melting point stands for the temperature of the solid-liquid transition. `O=[N+]([O-])c1ccccc1O[C@@H]1O[C@H](COP(=O)(O)O)[C@H](O)[C@H](O)[C@H]1O` (as salt: ammonium) [Enzyme 17, o-nitrophenyl β-D-galactopyranoside 6-phosphate] yielded a melting point of 181 to 183.1 °C.

As for `CS(=O)(=S)OCCC(=O)O` (stereo not drawn) [Enzyme 16, 2-carboxyethyl methanethiosulfonate], the melting point fell in the range of 44 to 46 °C.

B1: C344S: SsβG mutant C344S, side chain at position 439 —CH2CH2SCH3 (protein)
chain: MYSFPNSFRFGWSQAGFQSEMGTPGSEDPNTDWYKWVHDPENMAAGLVSGDLPENGPGYWGNYKTFHDNAQKMGLKIARLNVEWSRIFPNPLPRPQNFDESKQDVTEVEINENELKRLDEYANKDALNHYREIFKDLKSRGLYFILNMYHWPLPLWLHDPIRVRRGDFTGPSGWLSTRTVYEFARFSAYIAWKFDDLVDEYSTMNEPNVVGGLGYVGVKSGFPPGYLSFELSRRHMYNIIQAHARAYDGIKSVSKKPVGIIYANSSFQPLTDKDMEAVEMAENDNRWWFFDAIIRGEITRGNEKIVRDDLKGRLDWIGVNYYTRTVVKRTEKGYVSLGGYGHGSERNSVSLAGLPTSDFGWEFFPEGLYDVLTKYWNRYHLYMYVTENGIADDADYQRPYYLVSHVYQVHRAINSGADVRGYLHWSLADNYEWASGFSMRFGLLKVDYNTKRLYWRPSALVYREIATNGAITDEIEHLNSVPPVKPLRH
Broadly, the Km is the concentration of substrate that gives half-maximal velocity. One may read the kcat as the number of substrate molecules converted per active site and unit of time at saturation. For the molecule B1, the Km in series [1] came to 3590 µM; in series [2] (read-out: KM) it was 475 µM. Further, the kcat was found to be 8.42 s⁻¹ in series [1] and 4.16 s⁻¹ in series [2].
